Measurements taken from the supplement of paper PMC7125110.
± gives the standard error. Fewer inactive variants are shown than the library holds.

B1: glmS ribozyme (parent)
chain: AUAAAAGCGCCAGAACUACAGAAAUGUAGUUGACGAGGAGGAGGUUUAUCGAAUUUUCGGCGGAUGCCUCCAAA

Key:
Conditions in all cases: with glucosamine-6-phosphate
[1] = variants of: B1; assay: self-cleavage kobs at 640 uM GlcN6P; higher = faster cleavage; RNA array
In short: (§1)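 Barcoded ribozyme variants on sequenced MiSeq chips were transcribed in situ by E. coli RNA polymerase and followed at 37 °C through a hybridised Cy3 probe. Glucosamine-6-phosphate at 40 μM to 10 mM in HEPES/KCl/Mg(OAc)2 buffer was flowed in, and tiles were imaged over ~14 h. Signals were normalised to baseline and to non-cleaving reference variants, and per-tile medians were fit to one- or two-exponential decays to give kobs. Weighted Michaelis–Menten fits across concentrations gave kcat and KM.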

[2] = variants of: B1; assay: self-cleavage kobs at 2500 uM GlcN6P; higher = faster cleavage; RNA array
In short: as §1

[3] = variants of: B1; assay: self-cleavage kobs at 10000 uM GlcN6P; higher = faster cleavage; RNA array
In short: as §1

| Variant | self-cleavage kobs at 640 uM GlcN6P [1] | self-cleavage kobs at 2500 uM GlcN6P [2] | self-cleavage kobs at 10000 uM GlcN6P [3] |
| --- | --- | --- | --- |
| G43A U45A A53U G62C A64U | < 1e-05 s⁻¹ | < 1e-05 s⁻¹ | – |
| G7U G40A G60U | < 1e-05 s⁻¹ | < 1e-05 s⁻¹ | – |
| G40U C50U G63A C67A | < 1e-05 s⁻¹ | < 1e-05 s⁻¹ | – |
| G29U A36C G44U | < 1e-05 s⁻¹ | – | < 1e-05 s⁻¹ |
| A12C G26A G51U A53G C68G | 0.000191 ± 5.2e-05 s⁻¹ | 0.000139 ± 4.6e-05 s⁻¹ | – |
| G32U G59A A64U C67U | < 1e-05 s⁻¹ | < 1e-05 s⁻¹ | – |
| U30G G32A C68U | 7.55e-05 ± 3.7e-05 s⁻¹ | – | – |
| C8G C58U G59C C61U C67G | < 1e-05 s⁻¹ | < 1e-05 s⁻¹ | – |
| G9A G29A G63U | < 1e-05 s⁻¹ | < 1e-05 s⁻¹ | – |
| G38A G40U U65C | < 1e-05 s⁻¹ | – | – |
| A33G A36C U54C | < 1e-05 s⁻¹ | < 1e-05 s⁻¹ | < 1e-05 s⁻¹ |
| C10G C11A U31C G35C C70G | 0.00013 ± 6.3e-05 s⁻¹ | – | – |
| G44A U46C C68A | < 1e-05 s⁻¹ | < 1e-05 s⁻¹ | – |
| A12G C16G C50G C68G | 0.000104 ± 4.5e-05 s⁻¹ | – | – |
| U30C U45G U56G C68G | < 1e-05 s⁻¹ | < 1e-05 s⁻¹ | – |
| G7A U31G G41U C68U | < 1e-05 s⁻¹ | – | – |
| C34U U57A | < 1e-05 s⁻¹ | < 1e-05 s⁻¹ | – |
| A12U U30A G38U | < 1e-05 s⁻¹ | – | – |
| G35C G38A A64G | < 1e-05 s⁻¹ | < 1e-05 s⁻¹ | – |
| A33U G43A A48U C61U C70U | < 1e-05 s⁻¹ | < 1e-05 s⁻¹ | – |

| Variant | self-cleavage kobs at 640 uM GlcN6P [1] | self-cleavage kobs at 2500 uM GlcN6P [2] | self-cleavage kobs at 10000 uM GlcN6P [3] |
| --- | --- | --- | --- |
| C10U G43U U45G | < 1e-05 s⁻¹ | < 1e-05 s⁻¹ | – |
| C10A A39U A52G | < 1e-05 s⁻¹ | < 1e-05 s⁻¹ | < 1e-05 s⁻¹ |
| G37U G38A G41U U49A A52U G59U C67A | < 1e-05 s⁻¹ | – | – |
| A6C A39U G41C A52U | < 1e-05 s⁻¹ | < 1e-05 s⁻¹ | – |
| A33C G35C U49G G59C | < 1e-05 s⁻¹ | < 1e-05 s⁻¹ | – |
| A4C G32U U47G | 8.66e-05 ± 2.2e-05 s⁻¹ | 0.000118 ± 3.5e-05 s⁻¹ | – |
| C10A G62U C70G | 9.92e-05 ± 3.7e-05 s⁻¹ | 0.000143 ± 4.8e-05 s⁻¹ | – |
| A12U C67G C71A | < 1e-05 s⁻¹ | – | – |
| A39U G41U U47A A52C | < 1e-05 s⁻¹ | < 1e-05 s⁻¹ | – |
| G35U G41A A64G | < 1e-05 s⁻¹ | < 1e-05 s⁻¹ | – |
| A6C G41A C68A U69C | < 1e-05 s⁻¹ | – | < 1e-05 s⁻¹ |
| U56G U57A | 6.17e-05 ± 1e-05 s⁻¹ | 0.000102 ± 1.2e-05 s⁻¹ | 0.000326 ± 4.4e-05 s⁻¹ |
| G13C A14G A42G | 0.000198 ± 6.9e-05 s⁻¹ | 0.000379 ± 9.2e-05 s⁻¹ | – |
| G7A C8A U65C | < 1e-05 s⁻¹ | < 1e-05 s⁻¹ | – |
| U45C A53C | 9.37e-05 ± 1.6e-05 s⁻¹ | – | 0.000403 ± 0.00014 s⁻¹ |
| G29A G43C A52C C61U | < 1e-05 s⁻¹ | < 1e-05 s⁻¹ | – |
| C10U U31C A52U | < 1e-05 s⁻¹ | – | – |
| C8G U57G G59A | < 1e-05 s⁻¹ | < 1e-05 s⁻¹ | – |
| G7A G37A G60U A64U | < 1e-05 s⁻¹ | – | – |
| G9U A14C A53U G62A C67G | < 1e-05 s⁻¹ | < 1e-05 s⁻¹ | – |

| Variant | self-cleavage kobs at 640 uM GlcN6P [1] | self-cleavage kobs at 2500 uM GlcN6P [2] | self-cleavage kobs at 10000 uM GlcN6P [3] |
| --- | --- | --- | --- |
| C8G C10U A48U | < 1e-05 s⁻¹ | < 1e-05 s⁻¹ | – |
| A15U A33G G41U | < 1e-05 s⁻¹ | – | – |
| G37C A53C G60A | < 1e-05 s⁻¹ | – | – |
| A15U U46G A53U C67U | 6.64e-05 ± 1.4e-05 s⁻¹ | – | – |
| C11G U31A U47C C61G | < 1e-05 s⁻¹ | < 1e-05 s⁻¹ | – |
| A6U G40C C61U G62C | < 1e-05 s⁻¹ | – | – |
| G29A U30A U31C | 0.000152 ± 2.2e-05 s⁻¹ | 0.000309 ± 6.5e-05 s⁻¹ | – |
| A15G G38U G59C | < 1e-05 s⁻¹ | – | – |
| A12U A48G U49G | 6.79e-05 ± 3.2e-05 s⁻¹ | – | – |
| C8G G41A A52U | < 1e-05 s⁻¹ | < 1e-05 s⁻¹ | – |
| C8A C11U G60C C67A | < 1e-05 s⁻¹ | < 1e-05 s⁻¹ | < 1e-05 s⁻¹ |
| A12C A14G C34G G38U U49G A64G | < 1e-05 s⁻¹ | < 1e-05 s⁻¹ | – |
| C11U A12G C67A | 8.5e-05 ± 2e-05 s⁻¹ | 0.000771 ± 0.00025 s⁻¹ | – |
| C34U U46G C68G | 0.000568 ± 0.00025 s⁻¹ | < 1e-05 s⁻¹ | – |
| U31G A36C U49G | 8.9e-05 ± 1.7e-05 s⁻¹ | 0.000257 ± 4.5e-05 s⁻¹ | 0.000385 ± 6.8e-05 s⁻¹ |
| G9A G40C G44A G59U | < 1e-05 s⁻¹ | – | – |
| C11U G41C U54G G59C | < 1e-05 s⁻¹ | – | – |
| C16U A39G A42U U47A | 5.33e-05 ± 2.6e-05 s⁻¹ | 0.000115 ± 1.9e-05 s⁻¹ | – |
| C8A A15U A48C | < 1e-05 s⁻¹ | – | – |
